The labels stand for the following.
B1: RAD51AP1 (RAD51 associated protein 1), full-length wild type [not stated] / RAD51 recombinase [not stated] (parent complex)
chain 1: MVRPVRHKKPVNYSQFDHSDSDDDFVSATVPLNKKSRTAPKELKQDKPKPNLNNLRKEEIPVQEKTPKKRLPEGTFSIPASAVPCTKMALDDKLYQRDLEVALALSVKELPTVTTNVQNSQDKSIEKHGSSKIETMNKSPHISNCSVASDYLDLDKITVEDDVGGVQGKRKAASKAAAQQRKILLEGSDGDSANDTEPDFAPGEDSEDDSDFCESEDNDEDFSMRKSKVKEIKKKEVKVKSPVEKKEKKSKSKCNALVTSVDSAPAAVKSESQSLPKKVSLSSDTTRKPLEIRSPSAESKKPKWVPPAASGGSRSSSSPLVVVSVKSPNQSLRLGLSRLARVKPLHPNATST
chain 2: MAMQMQLEANADTSVEEESFGPQPISRLEQCGINANDVKKLEEAGFHTVEAVAYAPKKELINIKGISEAKADKILAEAAKLVPMGFTTATEFHQRRSEIIQITTGSKELDKLLQGGIETGSITEMFGEFRTGKTQICHTLAVTCQLPIDRGGGEGKAMYIDTEGTFRPERLLAVAERYGLSGSDVLDNVAYARAFNTDHQTQLLYQASAMMVESRYALLIVDSATALYRTDYSGRGELSARQMHLARFLRMLLRLADEFGVAVVITNQVVAQVDGAAMFAADPKKPIGGNIIAHASTTRLYLRKGRGETRICKIYDSPCLPEAEAMFAINADGVGDAKD

The variants in the test derive from B1. Briefly: BLI; RAD51 about 2.5 µM (highest point, read from the x axis); read off a plot.
Consider chain 1 R333A, chain 1 L334A, chain 1 L336A, for which the response is roughly 0.005 nm.

Source of the values: PMC12704761, “RAD51AP1 is a versatile RAD51 modulator” (Proceedings of the National Academy of Sciences of the …, 2025).
